Measurements as given in article PMC6265302, “Widespread bacterial lysine degradation proceeding via glutarate and L-2-hydroxyglutarate” (Nature Communications, 2018).

Target: the molecule itself
Experiment: crystal structure; CsiD at 13 mg/mL, sitting drop vapour diffusion, 18 °C; apo and with glutarate, succinate or N-oxalylglycine; symmetry P42(1)2, two copies in the asymmetric unit, tetramer generated by crystallographic symmetry

B1: CsiD (carbon starvation induced protein D), glutarate hydroxylase (enzyme, Escherichia coli, UniProt P76621 1-325, looked up)
chain: MNALTAVQNNAVDSGQDYSGFTLTPSAQSPRLLELTFTEQTTKQFLEQVAEWPVQALEYKSFLRFRVAKILDDLCANQLQPLLLKTLLNRAEGALLINAVGVDDVKQADEMVKLATAVAHLIGRSNFDAMSGQYYARFVVKNVDNSDSYLRQPHRVMELHNDGTYVEEITDYVLMMKIDEQNMQGGNSLLLHLDDWEHLDNYFRHPLARRPMRFAAPPSKNVSKDVFHPVFDVDQQGRPVMRYIDQFVQPKDFEEGVWLSELSDAIETSKGILSVPVPVGKFLLINNLFWLHGRDRFTPHPDLRRELMRQRGYFAYASNHYQTHQ
notes: CsiD of Escherichia coli, ORF amplified from E. coli BW25113 and inserted into pET28a; crystals were apo or held glutarate, succinate or N-oxalylglycine; also called glutarate-2-hydroxylase; G-2-H; source: E. coli BL21 (DE3), purified (Ni-NTA)
In the case of B1, the “stoichiometry N” value is reported as 4.
